Data reported in patent US20240165252A1, “ANTIBODY-DRUG CONJUGATE AND MEDICAL USE THEREOF” (Shanghai Hansoh Biomedical Co., Ltd., priority 2021, published 2024).

T1: His-tagged extracellular domain of human BCMA (BCMA-His) (human)
T1 construct: Bought protein; also called BCMA His protein; human BCMA His antigen
T1 chain: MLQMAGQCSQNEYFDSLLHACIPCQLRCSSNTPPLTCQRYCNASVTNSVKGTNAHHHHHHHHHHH

T2: BCMA expressed on cells (HEK-293T cells overexpressing BCMA; NCI-H929 tumor cells) (human, UniProt Q02223 1-184)
T2 construct: whole, on cells; also called HEK-293T/BCMA cells; NCI-H929 cells
T2 sequence (looked up): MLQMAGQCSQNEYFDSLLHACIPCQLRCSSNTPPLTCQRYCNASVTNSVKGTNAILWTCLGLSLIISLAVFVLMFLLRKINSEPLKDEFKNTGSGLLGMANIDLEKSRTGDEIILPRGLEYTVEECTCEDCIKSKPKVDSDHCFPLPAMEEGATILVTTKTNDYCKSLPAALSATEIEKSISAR


Assays:
[1] = biological target: BCMA expressed on cells (HEK-293T cells overexpressing BCMA; NCI-H929 tumor cells) (human) (UniProt Q02223); assay: cell-based or functional assay
[2] = biological target: T1, His-tagged extracellular domain of …; assay: indirect ELISA, BCMA His coated on plate
Procedure: (§1) After washing, the plate 4 times with PBST (pH 7.4 PBS containing 0.05% Tween-20), 3% bovine serum albumin (BSA) blocking solution diluted with PBST was added at 150 μl/well and incubated at room temperature for 1 hour for blocking. After completion of the blocking, the blocking solution was discarded, and the plate was washed 4 times with PBST buffer.
(§2) The antibody to be tested was 10-fold gradient diluted with PBST containing 3% BSA with the initial concentration of 1 μM to obtain 10 dilutions which were added to the microtiter plate at 100 μl/well and incubated at room temperature for 1 hour. After completion of the incubation, the plate was washed 4 times with PBST. HRP-labeled goat-anti-human secondary antibody (Abcam, Cat #ab97225) diluted with PBST containing 3% BSA was added at 100 μl/well and incubated at room temperature for 1 hour. The plate was washed 4 times with PBST, and then TMB chromogenic substrate (Cell Signaling Technology, cat #7004S) was added at 100 μl/well and incubated at room temperature in the dark for 1 minute. The stop solution (Cell Signaling Technology, cat #7002S) was added at 100 μl/well to terminate the reaction. The absorbance value at 450 nm was read with a microplate reader (BioTek, model Synergy H1). The data were analyzed.

[3] = biological target: T2, BCMA expressed on cells (HEK-293T cells …); assay: flow cytometry on NCI-H929 cells
Procedure: (§3) The cultured cells with high BCMA expression (HEK-293T cells overexpressing BCMA; tumor cells expressing BCMA, NCI-H929) were collected. The cell density was adjusted and the cells were plated on a 96-well U-bottomed plate at 1×10⁵ to 2×10⁵ cells per well. The plate was centrifuged at 1200 g for 5 min and the supernatant was removed. 100 μl of gradient diluted antibody solution or mouse immunized serum was added and incubated at 4° C. for 60 min. The plate was centrifuged at 1200 g for 5 min and the supernatant was removed. The cells were washed twice with PBS. A fluorescently labeled secondary antibody (PE-GAH or PE-GAM) was added at 100 μl per well and incubated at 4° C. for 60 min. The plate was centrifuged at 1200 g for 5 min and the supernatant was removed. The cells were washed twice with PBS and then re-suspended in PBS. The signal was detected by using a flow cytometer, and a concentration curve was plotted for result analysis.

[4] = biological target: T2, BCMA expressed on cells (HEK-293T cells …); assay: flow cytometry on HEK-293T/BCMA cells
Procedure: as §3

[5] = biological target: T1, His-tagged extracellular domain of …; assay: indirect ELISA, BCMA-His coated on plate
Procedure: as §1, §2

[6] = biological target: T2, BCMA expressed on cells (HEK-293T cells …); assay: cell-based or functional assay
[7] = biological target: T2, BCMA expressed on cells (HEK-293T cells …); assay: cell-based or functional assay; remark: listed apart in the source

Molecule	Killing Effect (IC50 nM) NCI-H929 [1] [nM]	EC50 [2] [nM]	EC50 [3] [nM]	EC50 [4] [nM]	EC50 [5] [nM]	Endocytosis efficiency %, 0.5 hour [6] [%]	Endocytosis efficiency %, 2 hours [6] [%]	Killing Effect (IC50 nM) NCI-H929 [7] [nM]
IgG1 iso ADC (y = 4) (antibody)	> 133	–	–	–	–	–	–	–
murine monoclonal antibody M1 (antibody, V domains shown, It is a hybridoma-derived murine antibody, yet the ELISA protocol names a goat-anti-human secondary antibody; also called murine antibody M1) VH: QVQLQQSGAELVRPGASVKLSCKALGYSFSDYEMHWVRQTPVHGLEWIGGIHPGSGGSAYNQKFKGKATLTVDKSSSTAYMELSSLTSEDSAVYYCTRLDYGYSWAWFPYWGQGTLVTVSA VL: EILLTQSPAIIVTSPGEKVTITCSASSSVIYMNWYQQKPGSSPKIWIYGISNLASGVPARFSGSGSGTSFSFTINSMEAEDVATYYCQQRSSYPLTFGAGTKLELK	–	0.53	128	115	–	–	–	–
humanized anti-BCMA antibody Ab2 (antibody, human IgG1, kappa, V domains shown, Human IgG1/kappa, expressed in HEK293 cells) VH: QVQLVQSGAEVKKPGASVKVSCKASGYSFSDYEMHWVRQAPGQGLEWIGGIHPGSGGSAYNQKFKGRVTLTVDKSTSTAYMELSSLRSEDTAVYYCTRLDYGYSWAWFPYWGQGTLVTVSA VL: EIVLTQSPATLSLSPGERATLSCSASSSVIYMNWYQQKPGQSPKIWIYGISNLASGVPARFSGSGSGTDFTLTISSLEPEDFAVYYCQQRSSYPLTFGGGTKVEIKR	–	–	3.5	–	0.033	36.7	48	–
antibody drug conjugate ADC2 (y = 4) (antibody, human IgG1, kappa, V domains shown, Linker-drug compound D (exatecan derivative) coupled to Ab2 after TCEP reduction. Average load y = 4 per antibody. Sites not stated.) VH: QVQLVQSGAEVKKPGASVKVSCKASGYSFSDYEMHWVRQAPGQGLEWIGGIHPGSGGSAYNQKFKGRVTLTVDKSTSTAYMELSSLRSEDTAVYYCTRLDYGYSWAWFPYWGQGTLVTVSA VL: EIVLTQSPATLSLSPGERATLSCSASSSVIYMNWYQQKPGQSPKIWIYGISNLASGVPARFSGSGSGTDFTLTISSLEPEDFAVYYCQQRSSYPLTFGGGTKVEIKR	–	–	–	–	–	–	–	0.76
humanized anti-BCMA antibody Ab1 (antibody, human IgG1, kappa, V domains shown, Human IgG1/kappa, expressed in HEK293 cells) VH: QVQLVQSGAEVKKPGASVKVSCKASGYSFSDYEMHWVRQAPGQGLEWMGGIHPGSGGSAYNQKFKGRVTMTRDTSTSTVYMELSSLRSEDTAVYYCTRLDYGYSWAWFPYWGQGTLVTVSA VL: EIVLTQSPATLSLSPGERATLSCSASSSVIYMNWYQQKPGQAPRLLIYGISNLASGIPARFSGSGSGTDFTLTISSLEPEDFAVYYCQQRSSYPLTFGGGTKVEIKR	–	–	4.6	–	0.022	36.6	49.5	–
humanized anti-BCMA antibody Ab3 (antibody, human IgG1, kappa, V domains shown, Human IgG1/kappa, expressed in HEK293 cells) VH: QVQLVQSGAEVKKPGASVKVSCKASGYSFSDYEMHWVRQAPGQGLEWIGGIHPGSGGSAYNQKFKGKATLTVDKSTSTAYMELSSLRSEDTAVYYCTRLDYGYSWAWFPYWGQGTLVTVSA VL: EILLTQSPATLSLSPGERATLTCSASSSVIYMNWYQQKPGSSPKIWIYGISNLASGVPARFSGSGSGTSFTLTISSLEPEDFAVYYCQQRSSYPLTFGGGTKVEIKR	–	–	3.9	–	0.034	35.5	45.7	–
